# According to patent publication US20250115681A1 (WESTLAKE UNIVERSITY, published 2025):
# Where no end group is shown, it is not given here. [ ]: non-standard residue; d: D form. The star is where a group is joined. Biotin = O=C1N[C@H]2[C@H](CS[C@H]2CCCCC(=O)*)N1
# T1: AALPET*G peptide with N-terminal biotinylation
# T1 construct: Synthetic sortase substrate peptide
# T1 peptide: Biotin-AALPET[2‑hydroxyacetic acid]G
# B1: mgSrtA (Ca2+-dependent) (enzyme)
# chain: KPHIDNYLHDKDKDEKIEQYDKNVKEQASKDKKQQAKPQIPKDKSKVAGYIEIPDADIKEPVYPGPATREQLNRGVSFAEENESLDDQNISIAGHTFIGRPNYQFTNLKAAKKGSMVYFKVGNETRKYKMTSIRNVKPTAVGVLDEQKGKDKQLTLITCDDLNRETGVWETRKILVATEVK
# notes: Engineered variant of wild-type sortase A, expressed in E. coli BL21 (DE3) with an N-terminal 6xHis tag; also called Ca^2+-dependent mgSrtA; not shown: N-terminal 6xHis tag from the pET-28a backbone
# Target: T1, AALPET*G peptide with N-terminal …
# Assay: western blot of in vitro reaction product bands
binder,measurement,value
B1,binding result,binds
